PMC9929037

Target: nLUC-TaPYL-1D (Triticum aestivum (bread wheat))
Experiment: split reporter (BiFC, NanoBiT); LCI of cLUC-TaPP2C-7A with nLUC-TaPYL-1D in N. benthamiana leaves with a third protein co-expressed (TN1-GFP, tn1-GFP or GFP empty vector); relative luminescence, GFP EV combination set to 1

Question: For TN1-GFP (natural protein), which percent decrease of LUC intensity of cLUC-TaPP2C-7A/nLUC-TaPYL-1D against the GFP EV samples is on record?
Answer: > 50%
